Experiments:
H3 COBRA NG2 HA protein = H3 COBRA NG2 HA protein (Influenza A virus H3, synthetic …)
H3 COBRA TJ5 HA protein = H3 COBRA TJ5 HA protein (Influenza A virus H3, synthetic …)
H3 COBRA J4 HA protein = H3 COBRA J4 HA protein (Influenza A virus H3, synthetic …)

Measured: binding result

B1: TJ5-16 (antibody, V domains shown)
VH: EVQLVQSGAEVKKPGASVKVSCKASGYTFTGYYIYWVRQAPGQGLEWMGWINPNGGGTNYAQKFQGRVTMTRDTSITTAYMELSRLRSDDSAVYYCAARAGPGTQDAQTIDFWGQGTLVTVSS
VL: SYELTQPPSVSVSPGQTARITCSGDALPKQYGYWYQQKPGQAPVLVIYKDSERPSGIPERFSGSSSGTTVTLTISGVQAEDEADYYCQSADSSGSYWVFGGGTKLT
binds: H3 COBRA NG2 HA protein | H3 COBRA TJ5 HA protein | H3 COBRA J4 HA protein

From article doi:10.1101/2022.02.24.481830 (bioRxiv, 2022)
